# In patent US20110076723A1, “ANTIBODY-PEPTIDE FUSED SYNERGIBODY” (SAMSUNG ELECTRONICS CO., LTD., priority 2008, published 2011):
# T1: recombinant VEGFR-2 protein (water soluble extracellular site of human VEGFR-2 with Fc of human IgG1 connected thereto, R&D Systems) (human), P35968
# T1 chain: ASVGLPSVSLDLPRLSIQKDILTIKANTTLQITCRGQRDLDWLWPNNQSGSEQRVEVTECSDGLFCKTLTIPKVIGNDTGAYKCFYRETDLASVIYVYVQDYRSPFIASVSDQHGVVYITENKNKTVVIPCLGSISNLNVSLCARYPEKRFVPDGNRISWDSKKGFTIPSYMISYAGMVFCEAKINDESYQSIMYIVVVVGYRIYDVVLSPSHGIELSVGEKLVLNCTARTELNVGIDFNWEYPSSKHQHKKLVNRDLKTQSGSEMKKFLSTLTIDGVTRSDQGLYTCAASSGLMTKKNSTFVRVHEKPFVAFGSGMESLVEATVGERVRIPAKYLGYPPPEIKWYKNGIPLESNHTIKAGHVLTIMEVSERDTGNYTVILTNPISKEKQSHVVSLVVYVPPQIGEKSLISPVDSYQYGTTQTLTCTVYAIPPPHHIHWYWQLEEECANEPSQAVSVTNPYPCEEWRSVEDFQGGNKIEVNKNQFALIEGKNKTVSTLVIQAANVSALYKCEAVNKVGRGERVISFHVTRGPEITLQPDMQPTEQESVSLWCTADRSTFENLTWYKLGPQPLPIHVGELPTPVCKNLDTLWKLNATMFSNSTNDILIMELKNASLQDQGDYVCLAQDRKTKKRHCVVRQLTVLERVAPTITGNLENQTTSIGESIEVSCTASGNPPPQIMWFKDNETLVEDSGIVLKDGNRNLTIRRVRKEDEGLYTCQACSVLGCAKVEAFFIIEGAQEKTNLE
# T2: recombinant hAng-2 (recombinant protein with His tag attached to human Ang-2; R&D Systems) (human, UniProt O15123 19-496)
# T2 construct: also called angiopoietin-2; ANGPT2
# T2 sequence (looked up): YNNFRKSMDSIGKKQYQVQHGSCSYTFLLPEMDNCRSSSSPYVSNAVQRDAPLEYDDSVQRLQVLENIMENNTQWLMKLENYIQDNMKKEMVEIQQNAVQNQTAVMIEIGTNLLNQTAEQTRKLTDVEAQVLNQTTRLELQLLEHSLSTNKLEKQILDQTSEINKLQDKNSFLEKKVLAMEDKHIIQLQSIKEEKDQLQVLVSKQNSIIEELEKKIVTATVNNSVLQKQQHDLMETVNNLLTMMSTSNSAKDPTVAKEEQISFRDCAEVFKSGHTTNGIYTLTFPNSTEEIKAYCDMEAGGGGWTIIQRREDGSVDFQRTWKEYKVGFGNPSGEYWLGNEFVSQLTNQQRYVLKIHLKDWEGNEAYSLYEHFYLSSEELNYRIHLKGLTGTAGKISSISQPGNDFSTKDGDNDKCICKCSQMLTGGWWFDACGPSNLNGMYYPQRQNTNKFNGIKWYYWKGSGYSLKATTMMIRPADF
# B1: Syn-Ang-VEGFR-11 (other)
# heavy (part 1 of 2): DVQLVESGGGLVQPGGSRKLSCAASGFTFSSFGMHWVRQAPEKGLEWVAYISSDSSTIYYADTVKGRFTISRDNPKNTLFLQMTSLRSEDTAMYYCAREGGYDDYYAMDYWGQGTSVTVSS
# heavy (part 2 of 2): TGSDDLCYTFPCMHY
# light: DIQMTQSPASQSASLGESVTITCLASQTIGTWLAWYQQKPGKSPQLLIYAATSLADGVPSRFSGSGSGTKFSFKISSLQAEDFVSYYCQQLYSIPLTFGGGTKLEIK
# notes: Chimeric (human IgG1) SAITAng-2-3 with the peptide at the C-terminus of the heavy chain; also called SAITAng-2-3 x DTN6VEGFR-2-1; not shown: human IgG1 heavy chain constant region with Fc region, from the vector; human light chain constant region, printed as 'constant region of human IgG1'
# B2: Syn-Ang-VEGFR-12 (other)
# heavy (part 1 of 2): B1 heavy (part 1 of 2)
# heavy (part 2 of 2): EAGKETCGYEWQYCPRP
# light: B1 light
# notes: Chimeric (human IgG1) SAITAng-2-3 with the peptide at the C-terminus of the heavy chain; also called SAITAng-2-3 x DTN8VEGFR-2-2; not shown: human IgG1 heavy chain constant region with Fc region, from the vector; human light chain constant region, printed as 'constant region of human IgG1'
# B3: Syn-Ang-VEGFR-15 (other)
# heavy (part 1 of 2): B1 heavy (part 1 of 2)
# heavy (part 2 of 2): PGSQGYCHLNMRYQWICDSE
# light: B1 light
# notes: Chimeric (human IgG1) SAITAng-2-3 with the peptide at the C-terminus of the heavy chain; also called SAITAng-2-3 x DTN11VEGFR-2-5; not shown: human IgG1 heavy chain constant region with Fc region, from the vector; human light chain constant region, printed as 'constant region of human IgG1'
# B4: Syn-Ang-VEGFR-13 (other)
# heavy (part 1 of 2): B1 heavy (part 1 of 2)
# heavy (part 2 of 2): EAGAYWCKAWGLSPCLVT
# light: B1 light
# notes: Chimeric (human IgG1) SAITAng-2-3 with the peptide at the C-terminus of the heavy chain; also called SAITAng-2-3 x DTN9VEGFR-2-3; not shown: human IgG1 heavy chain constant region with Fc region, from the vector; human light chain constant region, printed as 'constant region of human IgG1'
# B5: Syn-Ang-VEGFR-14 (other)
# heavy (part 1 of 2): B1 heavy (part 1 of 2)
# heavy (part 2 of 2): TGSGRMCDGSGPPTNCWFT
# light: B1 light
# notes: Chimeric (human IgG1) SAITAng-2-3 with the peptide at the C-terminus of the heavy chain; also called SAITAng-2-3 x DTN10VEGFR-2-4; not shown: human IgG1 heavy chain constant region with Fc region, from the vector; human light chain constant region, printed as 'constant region of human IgG1'
# B6: Syn-Ang-VEGFR-10 (other)
# heavy (part 1 of 2): QVQLQQSGPELVKPGASVKMSCKASGYTFTDYVISWVKQRTGQGLEWIGEIYPGSGSTYYNEKFKGKASLTADKSSNTAYMQLSSLTSADSAVYFCVRSRGDYYAMDYWGQGTSVTVSS
# heavy (part 2 of 2): PGSQGYCHLNMRYQWICDSE
# light: DIQMTQSPSSLSASLGGKVTITCKASQDINNYITWYQHKPGKGPRLLIHYTSTLQPGIPSRFSGSGSGRDYSFSISNLEPEDIATYYCLQYDNLLTFGGGTKLEIK
# notes: Chimeric (human IgG1) SAITAng-2-2 with the peptide at the C-terminus of the heavy chain; also called SAITAng-2-2 x DTN11VEGFR-2-5; not shown: human IgG1 heavy chain constant region with Fc region, from the vector; human light chain constant region, printed as 'constant region of human IgG1'
# B7: Syn-Ang-VEGFR-16 (other)
# heavy (part 1 of 2): QVQLQQSGAELARPGASVKLSCKASGYTFTDYYINWAKQRTGQGLEWIGEIYPGSGDTYYNEKFKGKATLTADKSSSTAYMQLSSLTSEDSAVYFCARYGYKGVYFDYWGQSTTLTVSS
# heavy (part 2 of 2): TGSDDLCYTFPCMHY
# light: ENVLTQSPAIMAASLGQKVTMTCSASSSVSSSYLHWYQQKSGASPKPLIHRTSNLASGVPARFSGSGSGTSYSLTISSVEAEDDATYYCQQWSGYPFTFGAGTKLELK
# notes: Chimeric (human IgG1) SAITAng-2-4 with the peptide at the C-terminus of the heavy chain; also called SAITAng-2-4 x DTN6VEGFR-2-1; not shown: human IgG1 heavy chain constant region with Fc region, from the vector; human light chain constant region, printed as 'constant region of human IgG1'
# B8: Syn-Ang-VEGFR-17 (other)
# heavy (part 1 of 2): B7 heavy (part 1 of 2)
# heavy (part 2 of 2): EAGKETCGYEWQYCPRP
# light: B7 light
# notes: Chimeric (human IgG1) SAITAng-2-4 with the peptide at the C-terminus of the heavy chain; also called SAITAng-2-4 x DTN8VEGFR-2-2; not shown: human IgG1 heavy chain constant region with Fc region, from the vector; human light chain constant region, printed as 'constant region of human IgG1'
# B9: Syn-Ang-VEGFR-20 (other)
# heavy (part 1 of 2): B7 heavy (part 1 of 2)
# heavy (part 2 of 2): PGSQGYCHLNMRYQWICDSE
# light: B7 light
# notes: Chimeric (human IgG1) SAITAng-2-4 with the peptide at the C-terminus of the heavy chain; also called SAITAng-2-4 x DTN11VEGFR-2-5; not shown: human IgG1 heavy chain constant region with Fc region, from the vector; human light chain constant region, printed as 'constant region of human IgG1'
# B10: Syn-Ang-VEGFR-18 (other)
# heavy (part 1 of 2): B7 heavy (part 1 of 2)
# heavy (part 2 of 2): EAGAYWCKAWGLSPCLVT
# light: B7 light
# notes: Chimeric (human IgG1) SAITAng-2-4 with the peptide at the C-terminus of the heavy chain; also called SAITAng-2-4 x DTN9VEGFR-2-3; not shown: human IgG1 heavy chain constant region with Fc region, from the vector; human light chain constant region, printed as 'constant region of human IgG1'
# B11: Syn-Ang-VEGFR-19 (other)
# heavy (part 1 of 2): B7 heavy (part 1 of 2)
# heavy (part 2 of 2): TGSGRMCDGSGPPTNCWFT
# light: B7 light
# notes: Chimeric (human IgG1) SAITAng-2-4 with the peptide at the C-terminus of the heavy chain; also called SAITAng-2-4 x DTN10VEGFR-2-4; not shown: human IgG1 heavy chain constant region with Fc region, from the vector; human light chain constant region, printed as 'constant region of human IgG1'
# Molecular target: T1, recombinant VEGFR-2 protein (water …)
# Test: competitive ELISA; peptide titrated with 1 nM VEGFR-2 on coated VEGF 165
row,IC50 [nM],Binder
1,50.7,PGSQGYCHLNMRYQWICDSE (modifications not checked) [DTN11VEGFR-2-5]
2,49.5,EAGKETCGYEWQYCPRP (modifications not checked) [DTN8VEGFR-2-2]
3,56.7,TGSDDLCYTFPCMHY (modifications not checked) [DTN6VEGFR-2-1]
4,46.9,TGSGRMCDGSGPPTNCWFT (modifications not checked) [DTN10VEGFR-2-4]
5,61.9,EAGAYWCKAWGLSPCLVT (modifications not checked) [DTN9VEGFR-2-3]

# Molecular target: T2, recombinant hAng-2 (recombinant protein …)
# Test: competitive ELISA; synergibody titrated with 1 nM hAng-2 (His) on coated hTie2-Fc
# Procedure: A competitive ELISA is performed to assess the molecular interaction of the binders. A 96-well MaxiSorp™ flat-bottom plate (Nunc) is coated with hTie2-Fc (R&D Systems), which is a fused protein including the water-soluble extracellular portion of human Tie-2 and Fc of human IgG₁ dissolved in DMEM culture solution containing 50 μg/ml bovine serum albumin (BSA). The concentration of hTie2-Fc used as a coating material is equivalent to 75% of its maximum binding concentration with 1 nM of recombinant hAng-2 (recombinant protein with His tag attached to human Ang-2; R&D Systems). Then the plate is washed five times with Phosphate Buffer Saline (PBS) containing 0.1% Tween-20 and blocked at room temperature for two hours with PBS containing 5% BSA. Each anti-Ang-2 antibodies are diluted from 100 nM by one-fourth each time with PBS containing 1% BSA and 1 nM hAng-2 and adjusted to 6.1 pM for Ang-2:Tie-2 neutralization ELISA. 100 μl of antibody/hAng-2 solutions are placed in each corresponding well and left to react at room temperature for two hours. Then the wells are washed five times with PBS containing 0.1% Tween-20, and the anti-His antibodies (GE Healthcare) are diluted to about 1:3,000 with PBS containing 1% BSA and left to react at room temperature for one hour. Afterwards, 100 μl of goat anti-mouse-IgG-HRP (Pierce) diluted with PBS containing 1% BSA to about 1:10,000 is added to each well of the plate, left to react at room temperature for one hour, and washed with PBS containing 0.1% Tween-20 five times. Lastly, 100 μl of TMB substrate (SIGMA) is added to each well of the plate to induce color reaction, and the reaction is stopped by adding 50 μl of 5N H₂SO₄ solution. The OD₄₅₀ value is read on a plate reader (Molecular Devices).
# The method described in Example 1, Section 3 above is used, except that, in the present example, each fused protein synergibodies are diluted from 100 nM to one-fourth each time with PBS containing 1% BSA and 1 nM hAng-2 and adjusted to 6.1 pM for Ang-2:Tie-2 neutralization ELISA.
row,IC50 [nM],Binder
1,0.858,B1
2,0.833,B2
3,0.925,B3
4,0.903,B4
5,0.887,B5
6,2,B6
7,1.22,B7
8,0.998,B8
9,1.35,B9
10,1.39,B10
11,1.28,B11

# Molecular target: T3, recombinant VEGFR-2 protein (water soluble extracellular site of human VEGFR-2 with Fc of human IgG1 … (human, UniProt P35968 20-764))
# T3 construct: extracellular domain; Bought; not shown: Fc of human IgG1
# Test: competitive ELISA; synergibody titrated with 1 nM VEGFR-2 on coated VEGF 165
# Procedure: Competitive ELISA is performed using the peptides synthesized above in Section 6A in order to assess the molecular interaction of the binders. […] Then the plate is washed five times with PBS containing 0.1% Tween-20, and blocked at room temperature for two hours with PBS containing 5% BSA. For VEGF:VEGFR-2 neutralization ELISA, each of the peptides synthesized in Section 6A above are diluted to one-fourth each time from 100 nM with PBS containing 1 nM VEGFR-2 and 1% BSA, and adjusted to 6.1 pM. 100 μl of peptide/VEGFR-2 solution is added to each well and the plate is left to react at room temperature for two hours. Subsequently, it is washed five times with PBS containing 0.1% Tween-20, mouse anti-VEGFR-2 antibodies (R&D Systems) is diluted to about 1:3,000 with PBS containing 1% BSA, and left to react at room temperature for one hour. Then 100 μl of goat anti-mouse-IgG-HRP (Pierce) diluted to about 1:10,000 with PBS containing 1% BSA is added to each well of the plate, left to react at room temperature for one hour, and washed five times with PBS containing 0.1% Tween-20. Lastly, 100 μl of TMB substrate (SIGMA) is added to each well of the plate to induce color reaction. The reaction is stopped by adding 50 μl of 5N H₂SO₄ solution, and the OD₄₅₀ value is read on a plate reader (Molecular Devices). Through the foregoing, the IC₅₀ value for the VEGF:VEGFR-2 binding capacity is obtained.
# The method in Example 2, Section 6B above is used, except that, in the present example, each fused protein synergibodies are diluted from 100 nM to one-fourth each time with PBS containing 1% BSA and 1nM VEGFR-2 and adjusted to 6.1 pM for VEGF:VEGF-2 neutralization ELISA.
row,IC50 [nM],Binder
1,0.872,B1
2,0.854,B2
3,1.05,B3
4,0.914,B4
5,0.889,B5
6,2.16,B6
7,1.16,B7
8,1.05,B8
9,1.38,B9
10,1.65,B10
11,1.31,B11
